From paper PMC12474313 come the findings set out here.

The target of the experiment is rRABV-G-XVIII (rabies virus glycoprotein ectodomain fused to the human collagen XVIII trimerization domain) (rabies virus strain CVS-11 | human). Put plainly: SEC. On the technique in general: Size exclusion chromatography separates by hydrodynamic size, large species first.

Broadly, the stoichiometry N is the number of molecules, sites or subunits per partner or assembly. In turn, “rRABV-G-XVIII (rabies virus glycoprotein ectodomain fused to the human collagen XVIII trimerization domain)” returned a percent trimeric protein of 96.3% and a stoichiometry N of 3.
